Paper PMC9910054

Target: Mycobacterium tuberculosis chorismate mutase variant V55D (Mycobacterium tuberculosis)
Experiment: crystal structure; sitting drop vapor diffusion, 20 °C; protein 44 mg/mL in 20 mM Bis Tris propane, pH 7.5, 150 mM NaCl; reservoir 0.2 M zinc acetate dihydrate, 10% w/v PEG 3000, 0.1 M sodium acetate, pH 4.5; space group P22(1)2(1); 2.1 Å

For “Mycobacterium tuberculosis chorismate mutase variant V55D (enzyme)”, the stoichiometry N was 2.
